T1: tag-free PDZ domain of PDLIM5 (PDLIM5-PDZ), first 127 residues (human, UniProt Q96HC4 1-127)
T1 construct: cDNA amplified from human kidney cDNA; a degradation product of the full-length construct in pSUMO3; also called untagged PDLIM5-PDZ; source: E. coli BL21, purified (Ni-NTA, SUMO proteinase 2 digestion, size-exclusion chromatography); not shown: His6-SUMO3, N-terminal, cleaved
T1 sequence (looked up): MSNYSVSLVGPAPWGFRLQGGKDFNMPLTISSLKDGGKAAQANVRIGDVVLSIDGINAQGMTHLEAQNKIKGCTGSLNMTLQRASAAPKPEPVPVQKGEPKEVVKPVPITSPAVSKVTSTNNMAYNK


Biological target: T1, tag-free PDZ domain of PDLIM5 …
Assay: ELISA; 100 μl of 30 μM GST_AE1C-WT, -Δ11, -M909T or GST alone immobilised on a 96-well plate; incubated with 100 μl of 2 μg/ml GST_PDLIM5, tag-free PDLIM5-PDZ or GST_ILK; detection with anti-PDLIM5-nt or anti-ILK, HRP, ABTS
Conditions: both partners purified

binding result | Binder
binds | LIFRNVELQCLDADDAKATFDEEEGRDEYDEVAMPV (domain or fragment, human, last 36 residues of anion exchanger 1 (AE1, SLC4A1), the cytosolic C-terminal tail; cloned into pGEX-4T-1; source: E. coli BL21, purified (glutathione sepharose beads); not shown: GST, N-terminal, kept) [GST-tagged AE1 C-terminal domain, wild type (GST_AE1C-WT)]
binds | LIFRNVELQCLDADDAKATFDEEEGRDEYDEVATPV (domain or fragment, human, UniProt P02730 876-911, looked up, last 36 residues of anion exchanger 1 (AE1, SLC4A1) with the dRTA-causing mutation M909T; cloned into pGEX-4T-1; C-terminus becomes A908TPV; source: E. coli BL21, purified (glutathione sepharose beads); not shown: GST, N-terminal, kept) [GST-tagged AE1 C-terminal domain with the missense mutation M909T (GST_AE1C-M909T)]

From publication PMC5206653, “PDLIM5 links kidney anion exchanger 1 (kAE1) to ILK and is required for membrane targeting of kAE1” (Scientific Reports, 2017)
